Bridge positions count the residues as written; N and C are the ends. Square brackets hold non-standard residues; d marks the D form. Ends that are not written are not given here.
B1: HTGRRRGG-RC-121 (peptide)
peptide: TGRRRGGFCYWKVCT
HELM: PEPTIDE1{T.G.R.R.R.G.G.[dF].C.Y.[dW].K.V.C.T.[am]}$PEPTIDE1,PEPTIDE1,9:R3-14:R3$$$V2.0
SMILES: CC(C)[C@@H]1NC(=O)[C@H](CCCCN)NC(=O)[C@@H](Cc2c[nH]c3ccccc23)NC(=O)[C@H](Cc2ccc(O)cc2)NC(=O)[C@@H](NC(=O)[C@@H](Cc2ccccc2)NC(=O)CNC(=O)CNC(=O)[C@H](CCCNC(=N)N)NC(=O)[C@H](CCCNC(=N)N)NC(=O)[C@H](CCCNC(=N)N)NC(=O)CNC(=O)[C@@H](N)[C@@H](C)O)CSSC[C@@H](C(=O)N[C@H](C(N)=O)[C@@H](C)O)NC1=O
notes: not complexed with Tc
B2: TcO[HTGRRRGG-RC-121] (peptide)
peptide: TGRRRGGFCYWKVCT
modifications: [TcO]3+ core chelated by the N-terminal HTGRRR tag; free N-terminus; the RC-121 part carries D-Phe, D-Trp, a C-terminal amide and the preserved disulfide bridge
B3: RC-121 (peptide)
peptide: [dF]CY[dW]KVCT-NH2
modifications: disulfide 2-7
notes: Cyclic octapeptide somatostatin analog, made by solid phase synthesis

Experiments:
[1] = biological target: T1, somatostatin receptor SST-2 (CHO-SST-2 (mb)) (Homo sapiens (Human), UniProt P30874 1-369); experiment: radioligand competition binding, CHO-SST-2 (mb)
T1 construct: Printed as 'CHO-SST-2 (mb)'; also called SST-2 receptor

[2] = biological target: T2, Somatostatin receptor subtype 2 (SST-2) on rat pancreatic carcinoma AR4-2J cells (rat, UniProt P30680 1-369); experiment: competition with [125I]-[Tyr1]-somatostatin on AR4-2J cell suspension, filtration, Cheng-Prusoff
T2 construct: whole, on cells; Whole-cell suspension; the cells express predominantly, not only, SST-2; also called AR2-2J cells
Protocol: (§1) The cells were grown in tissue culture dishes (Falcon) which were incubated at 37° C. in an atmosphere of 5% CO₂ and 95% humidified air in DMEM medium with 4.5 g/l glucose supplemented with 1% L-glutamine, 20% foetal calf serum, 1% penicillin/streptomycin and amphotericin B (1 μg/mL). Subculturing was performed with a trypsin/EDTA (0.05%/0.02% w/v) solution. All products were purchased from Sigma (Saint-Quentin Fallavier; France). At 100% confluence, the medium was removed and the cells were harvested using Versen buffer (PBS+5 mM EDTA), washed with ice-cold phosphate buffer and finally centrifuged at 1000 g for 7 min (4° C.). The pellet was suspended in ice-cold buffer (10 mM MgCl₂, 0.25% BSA, 50 mM HEPES pH7.5, 1% protease inhibitor cocktail (Sigma) and cells suspension was stored in ice before binding experiments.
(§2) All binding experiments for AR4-2J cells were done at 37° C. in 10 mM MgCl₂, 0.25% BSA, 50 mM HEPES pH7.5, 1% protease inhibitor cocktail (Sigma). […] Non-specific binding was determined in the presence of 5 μM somatostatin-28. Incubation was terminated by addition of ice-cold washing buffer (Tris 10 mM pH7.2) and rapid filtration over Whatman GF/C glass fiber filters pre-soaked in 0.5% polyethylenimine. The filters activity was measured in a Cobra gamma counter. Each experiment has been performed in duplicates at least two times.

[3] = biological target: somatostatin receptor SST-5 (CHO-SST-5 (mb)) (Homo sapiens (Human), UniProt P35346 1-364); experiment: radioligand competition binding, CHO-SST-5 (mb)
[4] = biological target: somatostatin receptor SST-3 (CHO-SST-3 (mb)) (Homo sapiens (Human), UniProt P32745 1-418); experiment: radioligand competition binding, CHO-SST-3 (mb)
[5] = biological target: T2, Somatostatin receptor subtype 2 (SST-2) …; experiment: competition with [125I]-[Tyr1]-somatostatin on AR4-2J cell suspension
Protocol: as §1, §2

[6] = biological target: somatostatin receptor SST-1 (CHO-SST-1 (mb)) (Homo sapiens (Human), UniProt P30872 1-391); experiment: radioligand competition binding, CHO-SST-1 (mb)
Chain of somatostatin receptor SST-1 (CHO-SST-1 (mb)) (P30872 whole entry, form in doubt): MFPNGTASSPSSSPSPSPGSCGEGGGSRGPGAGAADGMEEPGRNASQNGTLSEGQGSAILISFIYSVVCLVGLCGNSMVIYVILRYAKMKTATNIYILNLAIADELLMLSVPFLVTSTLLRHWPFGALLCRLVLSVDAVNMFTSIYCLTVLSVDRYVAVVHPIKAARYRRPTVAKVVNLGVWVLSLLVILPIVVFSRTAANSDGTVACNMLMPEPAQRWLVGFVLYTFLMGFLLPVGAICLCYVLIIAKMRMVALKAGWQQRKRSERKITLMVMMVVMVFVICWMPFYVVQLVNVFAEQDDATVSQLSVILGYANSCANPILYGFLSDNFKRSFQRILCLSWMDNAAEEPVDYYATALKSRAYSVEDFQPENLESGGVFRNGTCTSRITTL

T2 sequence (P30680 whole entry): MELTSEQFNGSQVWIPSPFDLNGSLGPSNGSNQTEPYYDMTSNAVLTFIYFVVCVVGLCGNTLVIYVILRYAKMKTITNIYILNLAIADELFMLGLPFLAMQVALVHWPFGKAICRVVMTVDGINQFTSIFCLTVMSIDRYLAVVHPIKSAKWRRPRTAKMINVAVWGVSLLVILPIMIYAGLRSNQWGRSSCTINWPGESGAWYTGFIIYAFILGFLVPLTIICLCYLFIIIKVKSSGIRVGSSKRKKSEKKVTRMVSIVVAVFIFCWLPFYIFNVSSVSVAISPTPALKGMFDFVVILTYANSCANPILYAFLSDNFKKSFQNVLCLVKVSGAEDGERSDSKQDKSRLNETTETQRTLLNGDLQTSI
T1 sequence (P30874 whole entry, form in doubt): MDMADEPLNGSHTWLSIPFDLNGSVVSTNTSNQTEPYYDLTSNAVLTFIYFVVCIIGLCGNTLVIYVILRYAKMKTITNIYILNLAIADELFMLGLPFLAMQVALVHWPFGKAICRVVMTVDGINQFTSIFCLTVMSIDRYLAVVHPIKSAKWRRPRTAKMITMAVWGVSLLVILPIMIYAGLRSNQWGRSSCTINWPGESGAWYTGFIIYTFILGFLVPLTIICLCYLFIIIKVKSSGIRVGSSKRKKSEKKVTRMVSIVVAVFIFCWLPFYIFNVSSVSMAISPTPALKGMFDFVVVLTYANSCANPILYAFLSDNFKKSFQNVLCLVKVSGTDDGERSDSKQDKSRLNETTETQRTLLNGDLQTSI
Chain of somatostatin receptor SST-5 (CHO-SST-5 (mb)) (P35346 whole entry, form in doubt): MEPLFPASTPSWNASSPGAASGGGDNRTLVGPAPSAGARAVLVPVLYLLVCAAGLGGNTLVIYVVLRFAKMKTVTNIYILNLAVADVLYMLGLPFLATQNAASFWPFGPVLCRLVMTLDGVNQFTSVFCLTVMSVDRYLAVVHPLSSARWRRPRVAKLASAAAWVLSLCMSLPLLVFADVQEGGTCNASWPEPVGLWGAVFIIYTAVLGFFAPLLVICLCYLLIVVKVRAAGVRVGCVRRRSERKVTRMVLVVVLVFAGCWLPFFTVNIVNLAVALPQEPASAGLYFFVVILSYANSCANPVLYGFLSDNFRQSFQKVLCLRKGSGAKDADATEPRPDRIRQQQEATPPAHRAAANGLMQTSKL
Chain of somatostatin receptor SST-3 (CHO-SST-3 (mb)) (P32745 whole entry, form in doubt): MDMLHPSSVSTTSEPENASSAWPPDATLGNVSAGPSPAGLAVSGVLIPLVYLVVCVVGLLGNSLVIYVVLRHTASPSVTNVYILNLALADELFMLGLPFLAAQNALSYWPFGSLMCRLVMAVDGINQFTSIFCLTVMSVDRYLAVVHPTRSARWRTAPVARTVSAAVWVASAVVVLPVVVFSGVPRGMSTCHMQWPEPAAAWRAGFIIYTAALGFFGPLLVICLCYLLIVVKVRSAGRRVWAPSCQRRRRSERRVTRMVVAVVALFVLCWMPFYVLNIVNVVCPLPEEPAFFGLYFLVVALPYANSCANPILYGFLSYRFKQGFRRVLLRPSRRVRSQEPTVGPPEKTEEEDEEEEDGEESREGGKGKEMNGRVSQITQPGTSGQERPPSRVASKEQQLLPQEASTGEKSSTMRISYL

Binder	Ki [1]	Ki [2]	Ki [3]	Ki [4]	Kd [5]	Ki [6]
B1	0.02 nM	0.035 nM	–	–	–	–
B2	0.02 nM	0.066 nM	30 nM	10 nM	0.06 nM	58 nM
B3	–	0.3 nM	–	–	–	–

Reference: patent US20110318827A1 (COMMISSARIAT A L ENERGIE ATOMIQUE ET AUX ENERGIES …, published 2011)
